Article PMC12416549 (2024)

Molecular target: T1, TNFR1 (Homo sapiens, UniProt P19438)
T1 chain: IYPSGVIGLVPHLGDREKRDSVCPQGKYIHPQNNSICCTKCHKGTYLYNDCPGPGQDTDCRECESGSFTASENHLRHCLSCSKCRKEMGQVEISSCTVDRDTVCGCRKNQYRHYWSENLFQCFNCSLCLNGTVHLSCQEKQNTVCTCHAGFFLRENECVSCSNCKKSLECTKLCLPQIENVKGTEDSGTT
Assay: yeast display SC50

B1: E58Y (designed binder)
chain: MTLQELLREEALRRAEAEAFRYALELLAEKFPEQKEYLLDLAEEIESQIRSLSGVDVYDVRKFLDKEWAWVKELLAEHPAELAEVEAARAARLAELRAEVEAKVAA
With B1 the “apparent Kd (screen)” value was 0.539 nM.

B2: L38A (designed binder)
chain: MTLQELLREEALRRAEAEAFRYALELLAEKFPEQKEYALDLAEEIESQIRSLSGVDVEDVRKFLDKEWAWVKELLAEHPAELAEVEAARAARLAELRAEVEAKVAA
In the case of B2, the “apparent Kd (screen)” value is reported as 12.5 nM.

B3: E81K (designed binder)
chain: MTLQELLREEALRRAEAEAFRYALELLAEKFPEQKEYLLDLAEEIESQIRSLSGVDVEDVRKFLDKEWAWVKELLAEHPAKLAEVEAARAARLAELRAEVEAKVAA
For B3, the “apparent Kd (screen)” value was 0.539 nM.

B4: R13C (designed binder)
chain: MTLQELLREEALCRAEAEAFRYALELLAEKFPEQKEYLLDLAEEIESQIRSLSGVDVEDVRKFLDKEWAWVKELLAEHPAELAEVEAARAARLAELRAEVEAKVAA
With B4 the “apparent Kd (screen)” value was 0.539 nM.

B5: A88P (designed binder)
chain: MTLQELLREEALRRAEAEAFRYALELLAEKFPEQKEYLLDLAEEIESQIRSLSGVDVEDVRKFLDKEWAWVKELLAEHPAELAEVEAPRAARLAELRAEVEAKVAA
For B5, the “apparent Kd (screen)” value was 2.05 nM.

B6: V55F (designed binder)
chain: MTLQELLREEALRRAEAEAFRYALELLAEKFPEQKEYLLDLAEEIESQIRSLSGFDVEDVRKFLDKEWAWVKELLAEHPAELAEVEAARAARLAELRAEVEAKVAA
For B6, the “apparent Kd (screen)” value was 0.869 nM.

B7: L27Y (designed binder)
chain: MTLQELLREEALRRAEAEAFRYALELYAEKFPEQKEYLLDLAEEIESQIRSLSGVDVEDVRKFLDKEWAWVKELLAEHPAELAEVEAARAARLAELRAEVEAKVAA
In the case of B7, the “apparent Kd (screen)” value is reported as 0.539 nM.

B8: E16S (designed binder)
chain: MTLQELLREEALRRASAEAFRYALELLAEKFPEQKEYLLDLAEEIESQIRSLSGVDVEDVRKFLDKEWAWVKELLAEHPAELAEVEAARAARLAELRAEVEAKVAA
With B8 the “apparent Kd (screen)” value was 0.653 nM.

B9: I45D (designed binder)
chain: MTLQELLREEALRRAEAEAFRYALELLAEKFPEQKEYLLDLAEEDESQIRSLSGVDVEDVRKFLDKEWAWVKELLAEHPAELAEVEAARAARLAELRAEVEAKVAA
In the case of B9, the “apparent Kd (screen)” value is reported as 1.54 nM.

B10: F20H (designed binder)
chain: MTLQELLREEALRRAEAEAHRYALELLAEKFPEQKEYLLDLAEEIESQIRSLSGVDVEDVRKFLDKEWAWVKELLAEHPAELAEVEAARAARLAELRAEVEAKVAA
For B10, the “apparent Kd (screen)” value was 0.49 nM.

B11: I49E (designed binder)
chain: MTLQELLREEALRRAEAEAFRYALELLAEKFPEQKEYLLDLAEEIESQERSLSGVDVEDVRKFLDKEWAWVKELLAEHPAELAEVEAARAARLAELRAEVEAKVAA
With B11 the “apparent Kd (screen)” value was 2.48 nM.

B12: L93R (designed binder)
chain: MTLQELLREEALRRAEAEAFRYALELLAEKFPEQKEYLLDLAEEIESQIRSLSGVDVEDVRKFLDKEWAWVKELLAEHPAELAEVEAARAARRAELRAEVEAKVAA
For B12, the “apparent Kd (screen)” value was 0.869 nM.

B13: A102V (designed binder)
chain: MTLQELLREEALRRAEAEAFRYALELLAEKFPEQKEYLLDLAEEIESQIRSLSGVDVEDVRKFLDKEWAWVKELLAEHPAELAEVEAARAARLAELRAEVEVKVAA
B13 was tested, and the “apparent Kd (screen)” value was 0.539 nM.

B14: A15I (designed binder)
chain: MTLQELLREEALRRIEAEAFRYALELLAEKFPEQKEYLLDLAEEIESQIRSLSGVDVEDVRKFLDKEWAWVKELLAEHPAELAEVEAARAARLAELRAEVEAKVAA
In the case of B14, the “apparent Kd (screen)” value is reported as 0.593 nM.

B15: L41E (designed binder)
chain: MTLQELLREEALRRAEAEAFRYALELLAEKFPEQKEYLLDEAEEIESQIRSLSGVDVEDVRKFLDKEWAWVKELLAEHPAELAEVEAARAARLAELRAEVEAKVAA
For B15, the “apparent Kd (screen)” value was 2.25 nM.

B16: L41S (designed binder)
chain: MTLQELLREEALRRAEAEAFRYALELLAEKFPEQKEYLLDSAEEIESQIRSLSGVDVEDVRKFLDKEWAWVKELLAEHPAELAEVEAARAARLAELRAEVEAKVAA
With B16 the “apparent Kd (screen)” value was 1.16 nM.

B17: A69F (designed binder)
chain: MTLQELLREEALRRAEAEAFRYALELLAEKFPEQKEYLLDLAEEIESQIRSLSGVDVEDVRKFLDKEWFWVKELLAEHPAELAEVEAARAARLAELRAEVEAKVAA
For B17, the “apparent Kd (screen)” value was 0.956 nM.

B18: A19K (designed binder)
chain: MTLQELLREEALRRAEAEKFRYALELLAEKFPEQKEYLLDLAEEIESQIRSLSGVDVEDVRKFLDKEWAWVKELLAEHPAELAEVEAARAARLAELRAEVEAKVAA
In the case of B18, the “apparent Kd (screen)” value is reported as 10.4 nM.

B19: L24V (designed binder)
chain: MTLQELLREEALRRAEAEAFRYAVELLAEKFPEQKEYLLDLAEEIESQIRSLSGVDVEDVRKFLDKEWAWVKELLAEHPAELAEVEAARAARLAELRAEVEAKVAA
In the case of B19, the “apparent Kd (screen)” value is reported as 0.653 nM.

B20: L64R (designed binder)
chain: MTLQELLREEALRRAEAEAFRYALELLAEKFPEQKEYLLDLAEEIESQIRSLSGVDVEDVRKFRDKEWAWVKELLAEHPAELAEVEAARAARLAELRAEVEAKVAA
In the case of B20, the “apparent Kd (screen)” value is reported as 5.31 nM.

B21: A102K (designed binder)
chain: MTLQELLREEALRRAEAEAFRYALELLAEKFPEQKEYLLDLAEEIESQIRSLSGVDVEDVRKFLDKEWAWVKELLAEHPAELAEVEAARAARLAELRAEVEKKVAA
For B21, the “apparent Kd (screen)” value was 0.539 nM.

B22: L52E (designed binder)
chain: MTLQELLREEALRRAEAEAFRYALELLAEKFPEQKEYLLDLAEEIESQIRSESGVDVEDVRKFLDKEWAWVKELLAEHPAELAEVEAARAARLAELRAEVEAKVAA
B22 was tested, and the “apparent Kd (screen)” value was 24.4 nM.

B23: E58C (designed binder)
chain: MTLQELLREEALRRAEAEAFRYALELLAEKFPEQKEYLLDLAEEIESQIRSLSGVDVCDVRKFLDKEWAWVKELLAEHPAELAEVEAARAARLAELRAEVEAKVAA
With B23 the “apparent Kd (screen)” value was 0.653 nM.

B24: E43F (designed binder)
chain: MTLQELLREEALRRAEAEAFRYALELLAEKFPEQKEYLLDLAFEIESQIRSLSGVDVEDVRKFLDKEWAWVKELLAEHPAELAEVEAARAARLAELRAEVEAKVAA
B24 was tested, and the “apparent Kd (screen)” value was 0.653 nM.

B25: E44D (designed binder)
chain: MTLQELLREEALRRAEAEAFRYALELLAEKFPEQKEYLLDLAEDIESQIRSLSGVDVEDVRKFLDKEWAWVKELLAEHPAELAEVEAARAARLAELRAEVEAKVAA
With B25 the “apparent Kd (screen)” value was 7.78 nM.

B26: A102N (designed binder)
chain: MTLQELLREEALRRAEAEAFRYALELLAEKFPEQKEYLLDLAEEIESQIRSLSGVDVEDVRKFLDKEWAWVKELLAEHPAELAEVEAARAARLAELRAEVENKVAA
In the case of B26, the “apparent Kd (screen)” value is reported as 0.539 nM.

B27: L7F (designed binder)
chain: MTLQELFREEALRRAEAEAFRYALELLAEKFPEQKEYLLDLAEEIESQIRSLSGVDVEDVRKFLDKEWAWVKELLAEHPAELAEVEAARAARLAELRAEVEAKVAA
For B27, the “apparent Kd (screen)” value was 7.07 nM.

B28: V60K (designed binder)
chain: MTLQELLREEALRRAEAEAFRYALELLAEKFPEQKEYLLDLAEEIESQIRSLSGVDVEDKRKFLDKEWAWVKELLAEHPAELAEVEAARAARLAELRAEVEAKVAA
For B28, the “apparent Kd (screen)” value was 3 nM.

B29: A17Y (designed binder)
chain: MTLQELLREEALRRAEYEAFRYALELLAEKFPEQKEYLLDLAEEIESQIRSLSGVDVEDVRKFLDKEWAWVKELLAEHPAELAEVEAARAARLAELRAEVEAKVAA
B29 was tested, and the “apparent Kd (screen)” value was 0.593 nM.

B30: E5Y (designed binder)
chain: MTLQYLLREEALRRAEAEAFRYALELLAEKFPEQKEYLLDLAEEIESQIRSLSGVDVEDVRKFLDKEWAWVKELLAEHPAELAEVEAARAARLAELRAEVEAKVAA
B30 was tested, and the “apparent Kd (screen)” value was 0.718 nM.

B31: L39N (designed binder)
chain: MTLQELLREEALRRAEAEAFRYALELLAEKFPEQKEYLNDLAEEIESQIRSLSGVDVEDVRKFLDKEWAWVKELLAEHPAELAEVEAARAARLAELRAEVEAKVAA
With B31 the “apparent Kd (screen)” value was 2.48 nM.

B32: L75V (designed binder)
chain: MTLQELLREEALRRAEAEAFRYALELLAEKFPEQKEYLLDLAEEIESQIRSLSGVDVEDVRKFLDKEWAWVKELVAEHPAELAEVEAARAARLAELRAEVEAKVAA
B32 was tested, and the “apparent Kd (screen)” value was 0.593 nM.

B33: A88K (designed binder)
chain: MTLQELLREEALRRAEAEAFRYALELLAEKFPEQKEYLLDLAEEIESQIRSLSGVDVEDVRKFLDKEWAWVKELLAEHPAELAEVEAKRAARLAELRAEVEAKVAA
In the case of B33, the “apparent Kd (screen)” value is reported as 0.539 nM.

B34: A105G (designed binder)
chain: MTLQELLREEALRRAEAEAFRYALELLAEKFPEQKEYLLDLAEEIESQIRSLSGVDVEDVRKFLDKEWAWVKELLAEHPAELAEVEAARAARLAELRAEVEAKVGA
For B34, the “apparent Kd (screen)” value was 0.869 nM.
